Laboratory results: article PMC5270677

Biological target: Quiescin-sulfhydryl oxidase (QSOX), recombinant human (human) (UniProt O00391)
Assay: SPR; Biacore 3000; […]; 30 ul/min in PBS, 0.05% Tween 20, 3 mM EDTA at 25°C; 1:1 Langmuir model; […]

Sequence of unfolded N-terminal region of human PrP, HuPrP(23-145) (P04156 23-145): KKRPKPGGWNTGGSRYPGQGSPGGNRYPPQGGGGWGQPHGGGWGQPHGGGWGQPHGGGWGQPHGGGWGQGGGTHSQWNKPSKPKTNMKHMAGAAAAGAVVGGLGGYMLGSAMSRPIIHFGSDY
Sequence of Quiescin-sulfhydryl oxidase (QSOX), recombinant human (human) (O00391 30-709): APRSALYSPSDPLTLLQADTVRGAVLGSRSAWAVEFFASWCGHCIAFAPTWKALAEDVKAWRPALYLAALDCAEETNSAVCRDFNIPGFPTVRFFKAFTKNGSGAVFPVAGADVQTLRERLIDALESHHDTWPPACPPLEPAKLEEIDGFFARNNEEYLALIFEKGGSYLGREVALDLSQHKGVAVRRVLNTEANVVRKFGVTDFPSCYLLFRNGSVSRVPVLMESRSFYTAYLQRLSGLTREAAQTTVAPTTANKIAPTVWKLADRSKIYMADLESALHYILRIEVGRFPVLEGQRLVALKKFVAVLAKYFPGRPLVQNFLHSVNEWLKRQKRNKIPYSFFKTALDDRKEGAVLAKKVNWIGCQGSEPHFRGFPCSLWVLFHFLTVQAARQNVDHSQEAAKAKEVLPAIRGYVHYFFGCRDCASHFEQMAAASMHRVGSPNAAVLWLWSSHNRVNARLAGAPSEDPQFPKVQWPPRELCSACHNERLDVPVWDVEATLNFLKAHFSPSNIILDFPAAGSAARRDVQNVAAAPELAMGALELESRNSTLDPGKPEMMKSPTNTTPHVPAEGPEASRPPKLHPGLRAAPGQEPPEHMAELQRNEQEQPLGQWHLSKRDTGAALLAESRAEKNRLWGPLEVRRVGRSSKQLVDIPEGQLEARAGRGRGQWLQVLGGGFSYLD

unfolded N-terminal region of human PrP, HuPrP(23-145) (from UniProt P04156 23-145) (domain or fragment)
Kd: 3.6 nM | koff: 4.78e-05 s⁻¹ | kon: 13200 M⁻¹ s⁻¹
